Target: mAb0077(OA)
Sequence (chain, as listed by the source, chain 1 of 3): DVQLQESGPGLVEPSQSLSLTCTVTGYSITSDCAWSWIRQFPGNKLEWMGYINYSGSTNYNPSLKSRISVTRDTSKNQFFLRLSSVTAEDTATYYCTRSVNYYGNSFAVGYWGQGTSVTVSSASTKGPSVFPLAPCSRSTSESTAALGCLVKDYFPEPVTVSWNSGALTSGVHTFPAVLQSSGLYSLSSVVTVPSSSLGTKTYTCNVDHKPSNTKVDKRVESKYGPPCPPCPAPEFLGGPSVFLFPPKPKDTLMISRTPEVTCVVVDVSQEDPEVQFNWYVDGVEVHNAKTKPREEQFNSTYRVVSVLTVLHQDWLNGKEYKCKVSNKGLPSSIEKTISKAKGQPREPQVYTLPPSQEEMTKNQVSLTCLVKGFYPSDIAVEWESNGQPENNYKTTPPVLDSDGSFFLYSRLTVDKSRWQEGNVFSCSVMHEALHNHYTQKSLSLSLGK
Sequence (chain, as listed by the source, chain 2 of 3): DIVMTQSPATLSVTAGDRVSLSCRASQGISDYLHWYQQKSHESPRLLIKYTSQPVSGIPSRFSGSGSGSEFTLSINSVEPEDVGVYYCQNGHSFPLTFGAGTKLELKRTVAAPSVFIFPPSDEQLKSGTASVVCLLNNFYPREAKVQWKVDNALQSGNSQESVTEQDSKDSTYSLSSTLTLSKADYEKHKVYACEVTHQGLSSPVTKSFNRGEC
Sequence (chain, as listed by the source, chain 3 of 3): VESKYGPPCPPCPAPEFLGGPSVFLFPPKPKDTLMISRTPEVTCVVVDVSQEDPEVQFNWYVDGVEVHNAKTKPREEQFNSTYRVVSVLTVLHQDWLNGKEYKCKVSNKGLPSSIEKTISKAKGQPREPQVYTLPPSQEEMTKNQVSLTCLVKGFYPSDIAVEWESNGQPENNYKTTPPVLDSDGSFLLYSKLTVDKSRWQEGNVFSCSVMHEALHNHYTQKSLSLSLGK

B1: recombinant human activated Factor VII (FVIIa) (protein)
chain 1: ANAFLEELRPGSLERECKEEQCSFEEAREIFKDAERTKLFWISYSDGDQCASSPCQNGGSCKDQLQSYICFCLPAFEGRNCETHKDDQLICVNENGGCEQYCSDHTGTKRSCRCHEGYSLLADGVSCTPTVEYPCGKIPILEKRNASKPQGR
chain 2: IVGGKVCPKGECPWQVLLLVNGAQLCGGTLINTIWVVSAAHCFDKIKNWRNLIAVLGEHDLSEHDGDEQSRRVAQVIIPSTYVPGTTNHDIALLRLHQPVVLTDHVVPLCLPERTFSERTLAFVRFSLVSGWGQLLDRGATALELMVLNVPRLMTQDCLQQSRKVGDSPNITEYMFCAGYSDGSKDSCKGDSGGPHATHYRGTWYLTGIVSWGQGCATVGHFGVYTRVSQYIEWLQKLMRSEPRPGVLLRAPFP
Work on B1 yielded a Km of FX activation by FVIIa/PS:PC with 200 nM antibody of 89 nM, a Km of FX activation by TF-FVIIa with 200 nM antibody of 3.9 nM and a kcat of FX activation by FVIIa/PS:PC with 200 nM antibody of 0.00026 s⁻¹.

Source: patent publication US20220064329
